From the supplement of paper PMC11908140

B1: library; numbered along this chain (parent)
chain: MRKPRAAVGSGHRKQAASQEGRQKHAKNNSQAKPSACDGLARQPEEVVLQASVSSYHLFRDVAEVTAFRGSLLSWYDQEKRDLPWRRRAEDEMDLDRRAYAVWVSEVMLQQTQVATVINYYTGWMQKWPTLQDLASASLEEVNQLWAGLGYYSRGRRLQEGARKVVEELGGHMPRTAETLQQLLPGVGRYTAGAIASIAFGQATGVVDGNVARVLCRVRAIGADPSSTLVSQQLWGLAQQLVDPARPGDFNQAAMELGATVCTPQRPLCSQCPVESLCRARQRVEQEQLLASGSLSGSPDVEECAPNTGQCHLCLPPSEPWDQTLGVVNFPRKASRKPPREESSATCVLEQPGALGAQILLVQRPNSGLLAGLWEFPSVTWEPSEQLQRKALLQELQRWAGPLPATHLRHLGEVVHTFSHIKLTYQVYGLALEGQTPVTTVPPGARWLTQEEFHTAAVSTAMKKVFRVYQGQQPGTCMGSKRSQVSSPCSRKKPRMGQQVLDNFFRSHISTDAHSLNSAAQ

Variants of: B1
Assay: 8OG:A repair function score (normalized; synonymous = 0, nonsense = -1) (normalized log-likelihood score); higher = more repair activity (WT-like)
Conditions: with 8OG:A DNA repair reporter (GFP) in HEK-293 MUTYH KO cells
Method in brief: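 GFP+ (repair) and GFP− bins of viable mCherry+ cells were collected at 72 h from MUTYH knockout HEK-293 cells bearing lentiviral MUTYH cDNA NNN codon-scan libraries in 10 pg/ml doxycycline, co-transfected with an 8OG:A GFP repair reporter and mCherry. Tile amplicons were sequenced, and per-tile Rosace fitness scores were normalized to a repair function score anchored on synonymous and nonsense distributions. Synonymous medians were set to 0 and nonsense to -1, with variants under 300 counts per million at the start removed.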
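Also: cells sorted at 72 h after reporter transfection.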

8OG:A repair function score, by site and new letter:
I195: N -1.12 | L -0.287 | P -1.04 | E -1.06 | G -0.964 | C -0.59 | M -0.23 | D -1.1 | Q -1.01 | W -0.908 | A -0.996 | T -0.534 | Y -0.741 | R -1.02 | V -0.0879 | F -1.08 | K -1.05 | S -0.944 | H -1.14
A196: S 0.00714 | F -0.939 | V -0.382 | P -1.11 | M -0.507 | N -0.697 | W -1.18 | Q -0.897 | L -0.68 | H -0.673 | C -0.233 | G -0.309 | I -0.703 | Y -0.723 | R -0.93 | D -0.616 | E -0.674 | K -0.993 | T -0.342
F200: C -0.266 | H -0.308 | L -0.252 | R -0.97 | W -0.182 | T -0.739 | D -0.891 | M 0.0616 | Q -0.502 | A -0.576 | Y 0.0681 | N -0.427 | K -0.874 | E -0.847 | V -0.545 | P -1.02 | S -0.54 | I -0.505 | G -0.582
Q202: E -0.0729 | I -0.0774 | G -0.395 | C 0.0136 | D 0.0238 | F -0.471 | A 0.00201 | H -0.0825
I198: M -0.189 | Y -0.792 | V -0.254 | L -0.391 | D -1.1 | E -0.552 | F -0.447 | K -1.06 | Q -0.466 | C -0.474 | S -0.757 | R -0.575 | P -0.841 | A -0.548 | N -0.562 | G -1.05 | H -0.963 | T -0.36
A194: H -1.31 | Q -0.577 | C -0.313 | I -0.291 | F -1.16 | L -0.733 | D -1.03 | E -0.986 | G -0.624 | Y -1.23 | K -1.06 | V -0.443 | M -0.32 | W -1.05 | T -0.422 | P -1.06 | S -0.169 | N -0.737 | R -1.1
S197: H -1.22 | I -0.959 | L -1.13 | T -0.695 | Q -1.14 | A -0.271 | C -0.73 | D -1.04 | F -0.956 | W -1.37 | N -1.17 | R -1.21 | K -1 | G -0.747 | Y -0.898 | P -1.3 | V -0.973 | E -0.903
G201: A -0.14 | Q 0.039 | L -0.298 | R -0.0601 | H 0.0082 | V -0.331 | D -0.0211 | M -0.244 | T -0.23 | F -0.266 | N 0.0301 | I -0.543 | Y -0.227 | E -0.32 | C -0.103 | K 0.012 | W -0.353 | S -0.0385 | P -1.06
G193: Q -0.238 | T -0.169 | V -0.346 | S 0.0283 | W -0.832 | N 0.0644 | R -0.0604 | P -0.524 | Y -0.241
A199: D -1.07 | M -0.87 | S -0.171 | T -0.214 | I -0.536 | P -1.07 | H -0.874 | K -1.14 | C 0.000923 | L -1.01 | R -1.16 | N -0.885 | G -0.183 | V -0.155 | E -1.06 | Q -1.11 | F -1.13 | Y -1.05 | W -0.8
